The values that follow come from patent publication US20140017242A1, “ANTI-BRADYKININ B2 RECEPTOR (BKB2R) MONOCLONAL ANTIBODY” (Diamedica, Inc., priority 2010, published 2014).

Sequences and labels used below:
B1: humanized anti-BKB2R antibody H37/L37 (antibody, human IgG2, kappa, V domains shown)
VH: EVQLVESGGGLVQPGGSLRLSCAASGFTFSDYWMDWVRQAPGKGLEWVGEIRLKSDNYATHYAASVKGRFTISRDDSKNSLYLQMNSLKTEDTAVYYCTRDYYAMEYWGQGTTVTVSS
VL: DIVMTQTPLSLSVTPGQPASISCKSSQTIVHSNGKTYLYWYLQKPGQSPQLLIYKVSSRFSGVPDRFSGSGSGTDFTLKISRVEAEDVGVYYCFQASHVPYTFGQGTKLEIKR
B2: humanized anti-BKB2R antibody H38/L39 (antibody, human IgG2, kappa, V domains shown)
VH: B1 VH with V5L, R19K, A24V, D35S, G49S, A64D, S80T, K89R, T90A, T113L
VL: B1 VL with I2V, Y39E, S58N
B3: humanized anti-BKB2R antibody H39/L38 (antibody, human IgG2, kappa, V domains shown)
VH: B1 VH with Q3K, A24V, G49A, N79S, S80R
VL: B1 VL with S12P, P15S, Q17E, K24R, Y39D, S58N, F60A, Q105G, L109V
B4: humanized anti-BKB2R antibody H38/L38 (antibody, human IgG2, kappa, V domains shown)
VH: B1 VH with V5L, R19K, A24V, D35S, G49S, A64D, S80T, K89R, T90A, T113L
VL: B1 VL with S12P, P15S, Q17E, K24R, Y39D, S58N, F60A, Q105G, L109V
B5: humanized anti-BKB2R antibody H37/L38 (antibody, human IgG2, kappa, V domains shown)
VH: B1 VH
VL: B1 VL with S12P, P15S, Q17E, K24R, Y39D, S58N, F60A, Q105G, L109V
B6: humanized anti-BKB2R antibody H39/L37 (antibody, human IgG2, kappa, V domains shown)
VH: B1 VH with Q3K, A24V, G49A, N79S, S80R
VL: B1 VL
B7: humanized anti-BKB2R antibody H39/L39 (antibody, human IgG2, kappa, V domains shown)
VH: B1 VH with Q3K, A24V, G49A, N79S, S80R
VL: B1 VL with I2V, Y39E, S58N
B8: humanized anti-BKB2R antibody H38/L37 (antibody, human IgG2, kappa, V domains shown)
VH: B1 VH with V5L, R19K, A24V, D35S, G49S, A64D, S80T, K89R, T90A, T113L
VL: B1 VL
B9: humanized anti-BKB2R antibody H37/L39 (antibody, human IgG2, kappa, V domains shown)
VH: B1 VH
VL: B1 VL with I2V, Y39E, S58N
B10: L1/H1: humanized anti-BKB2R mAb, light chain L1 (SEQ ID NO:8), heavy chain H1 (SEQ ID NO:3), human IgG2/kappa (antibody, V domains shown)
VH: B1 VH with D35S, G49A, A64E, D76N, S77A, K89R, T90A, T113L
VL: DIVMTQSPLSLPVTPGEPASISCRSSQTIVHSNGKTYLEWYLQKPGQSPQLLIYKVSNRFSGVPDRFSGSGSGTDFTLKISRVEAEDVGVYYCFQASHVPYTFGQGTKLEIK
modifications: Humanized H1 Heavy Chain Variable Region VH; Humanized L1 Light Chain Variable Region VL
B11: L1/HC: humanized light chain L1 (SEQ ID NO:8) with HC, the mouse original 5F12G1 VH (antibody)
heavy: EVKLEESGGGLVQPGGSMKLSCVVSGFTFSDYWMSWVRHSPEMGLEWVAEIRLKSDNYATHYAESVKGRFTISRDDSKSRLYLQINSLRGEDTGIYYCTRDYYAMEYWGQGTSVTVSS
light: DIVMTQSPLSLPVTPGEPASISCRSSQTIVHSNGKTYLEWYLQKPGQSPQLLIYKVSNRFSGVPDRFSGSGSGTDFTLKISRVEAEDVGVYYCFQASHVPYTFGQGTKLEIKRTVAAPSVFIFPPSDEQLKSGTASVVCLLNNFYPREAKVQWKVDNALQSGNSQESVTEQDSKDSTYSLSSTLTLSKADYEKHKVYACEVTHQGLSSPVTKSFNRGEC
modifications: left off: a dimerising Fc or GST
B12: L2/HC: humanized light chain L2 (SEQ ID NO:9) with HC, the mouse original 5F12G1 VH (antibody)
heavy: B11 heavy
light: B11 light with D75E
modifications: left off: a dimerising Fc or GST
B13: H39/L37: humanized anti-BKB2R mAb, heavy chain H39 (SEQ ID NO:7), light chain L37 (SEQ ID NO:10) (antibody, V domains shown)
VH: B1 VH with Q3K, A24V, G49A, N79S, S80R
VL: B10 VL with S7T, P12S, E17Q, R24K, E39Y, N58S
modifications: Humanized H39 Heavy Chain Variable Region VH; Humanized L37 Light Chain Variable Region VL
B14: H38/L38: humanized anti-BKB2R mAb, heavy chain H38 (SEQ ID NO:6), light chain L38 (SEQ ID NO:11) (antibody, V domains shown)
VH: B1 VH with V5L, R19K, A24V, D35S, G49S, A64D, S80T, K89R, T90A, T113L
VL: B10 VL with S7T, P15S, E39D, F60A, Q105G, L109V
modifications: Humanized H38 Heavy Chain Variable Region VH; Humanized L38 Light Chain Variable Region VL

Positions count from the first letter of the chain named. Where no end group is shown, it is not given here.

The first test addresses T1, human BKB2R-derived epitope peptide (SEQ ID NO:73), PEG-biotin (human, also: PEG-biotin, site not given here).
T1 construct: also called immunogenic human BKB2R peptide fragment
T1 peptide: KEYSDEGHNVTAC
The experiment in a line: BLI (Octet), peptide-PEG-biotin on streptavidin sensor, antibody 500 nM.
Details: not given
The protocol: (§1) For the Octet study, antibodies were analyzed by kinetic titration of the antibodies. Antibodies were prepared in kinetic buffer (0.001 M phosphate buffered saline (NaCl 0.0138 M; KCl-0.00027 M); pH 7.4, at 25° C., 0.1 mg/ml BSA, 0.002% Tween and 0.005% Sodium Azide) followed by 1:2 serial dilutions.
(§2) Sensor Prep: Streptavidin biosensors (FortéBio Inc, Menlo Park, Calif.) were coated by incubation in a solution containing a peptide ([…]-PEG-biotin) (Biosyn, Lewisville, Tex.) at 50 μg/ml (300 seconds/1000 rpm shaking). 96 well half-volume plates were used for testing. 90 μl of sample was plated per well. Sensors were allowed to equilibrate to baseline in kinetic buffer (60 seconds/1000 rpm). The sensors were then placed into the various antibody dilutions to allow binding (association) to the probe for 500 seconds/1000 rpm, and measurements were taken. The sensors were then moved into kinetic buffer without antibody for dissociation (500 seconds/1000 rpm), and measurements were taken. Octet system software calculated kinetic constants for on rate/off rate/affinity.
For test humanized monoclonal antibodies, the highest concentration used was 500 nM followed by 1:2 dilutions. Each concentration was tested twice. The HC and LC represented the mouse original 5F12G1 VH and VL sequences.
In the case of B1, the affinity, expressed as Kd, was 758 nM; the “Max Response” value turned out to be 0.12; the off-rate constant (koff) (in general, the rate constant with which the complex falls apart) was found to be 1.18 s⁻¹; the kon (usually the rate constant with which the complex forms) was determined as 1.55e+06 M⁻¹ s⁻¹.

Turning to B2, the Kd – broadly, a measure of binding affinity in units of concentration – came to 93.2 nM; the “Max Response” value stood at 0.0681; the koff stood at 106 s⁻¹; the kon worked out at 1.14e+09 M⁻¹ s⁻¹.

B3: the equilibrium dissociation constant (Kd) was 761 nM, the “Max Response” value was 0.143, the dissociation rate constant (koff) stood at 4.9 s⁻¹ and the kon was determined as 6.44e+06 M⁻¹ s⁻¹.

As to B4, the equilibrium dissociation constant (Kd) was found to be 2.49 nM, the “Max Response” value worked out at 0.132, the koff was 0.00763 s⁻¹ and the kon came out at 3.06e+06 M⁻¹ s⁻¹.

B5: the dissociation constant Kd is 220 nM, the “Max Response” value turned out to be 0.173, the koff was 2.08 s⁻¹ and the kon turned out to be 9.47e+06 M⁻¹ s⁻¹.

In the case of B6, the affinity, expressed as Kd, was 23.4 nM; the “Max Response” value stood at 0.119; the koff was found to be 0.0288 s⁻¹; the on-rate constant (kon) is 1.23e+06 M⁻¹ s⁻¹.

As to B7, the Kd was found to be 1730 nM, the “Max Response” value turned out to be 0.0915, the koff amounted to 1.26 s⁻¹ and the kon came to 729000 M⁻¹ s⁻¹.

For B8, binding was characterised by a dissociation constant (Kd) of 3110 nM, the “Max Response” value came to 0.577, the dissociation rate constant (koff) was determined as 29.4 s⁻¹ and the on-rate (kon) is 9.44e+06 M⁻¹ s⁻¹.

As for B9, binding was put at a Kd of 1230 nM, the “Max Response” value turned out to be 0.121, the dissociation rate constant (koff) is 1.98 s⁻¹ and the kon is 1.11e+06 M⁻¹ s⁻¹.

The next test addresses T2, human BKB2R-derived epitope peptide, SE ID NO:73 (Homo sapiens, UniProt P30411).
T2 construct: purchased Biosyn, Lewisville, Tex
The test is described as follows: ForteBio Octet binding kinetics to the BKB2R epitope peptide. Particulars: Conc. 250 nM. As to the method:
Proteins corresponding to all combinations of humanized or chimeric (5F12G1 VH and VL on human IgG2 backbone) antibodies were tested for binding to the human BKB2R-derived epitope peptide, SE ID NO:73.
A ForteBio (Menlo Park, Calif., USA) Octet® platform was used to analyze the binding affinities and binding characteristics of the humanized monoclonal antibodies to the peptide epitope (SEQ ID NO:73) and compared to the original mouse monoclonal 5F12G1. This platform employed label-free technology for measuring biomolecular interactions by optical analysis of the interference pattern of white light reflected from two surfaces: a layer of immobilized protein on the biosensor tip, and an internal reference layer. Any change in the number of molecules bound to the biosensor tip caused a shift in the interference pattern that was measured in real-time. Binding specificity, and rates of association and dissociation were monitored.
as §1, §2
[…] […] Each concentration was tested twice. The HC and LC represented the mouse original 5F12G1 VH and VL sequences.
Background: In BLI a coated tip is dipped into the sample, and binding shifts an interference pattern.
On to B10, for which the “kdis” value is 0.701 s⁻¹ and the on-rate (kon) was 1.59e+06 M⁻¹ s⁻¹.

Take B11: the “kdis” value came to 0.728 s⁻¹ and the “kon” value was 239000 M⁻¹ s⁻¹.

Consider B12, for which the “kdis” value turned out to be 0.732 s⁻¹ and the association rate constant (kon) came out at 2.17e+06 M⁻¹ s⁻¹.

The test is the same for the next values; noted with them: Conc. 500 nM.
For the molecule B10, the “kdis” value worked out at 0.942 s⁻¹ and the on-rate constant (kon) was determined as 404000 M⁻¹ s⁻¹.

Turning to B13, the “kdis” value was determined as 0.0288 s⁻¹ and the “kon” value is 1.23e+06 M⁻¹ s⁻¹.

As for B14, the “kdis” value turned out to be 0.00763 s⁻¹ and the association rate constant (kon) was determined as 3.06e+06 M⁻¹ s⁻¹.

As for B11, the “kdis” value turned out to be 2.16 s⁻¹ and the “kon” value turned out to be 543000 M⁻¹ s⁻¹.

For B12, the “kdis” value turned out to be 0.655 s⁻¹ and the “kon” value was found to be 145000 M⁻¹ s⁻¹.

The test is the same for the next values; noted with them: Octet, epitope peptide.
On to B13, for which the “binding compared with the original mouse monoclonal antibody” value is “stronger binding (lower KD)”.

Consider B14, for which the “binding compared with the original mouse monoclonal antibody” value is reported as “stronger binding (lower KD)”.
